# Experimental data as given in publication PMC9399289.
# Target: T1, GST-SDE2-FLAG WT (human) (UniProt Q6IQ49)
# T1 sequence: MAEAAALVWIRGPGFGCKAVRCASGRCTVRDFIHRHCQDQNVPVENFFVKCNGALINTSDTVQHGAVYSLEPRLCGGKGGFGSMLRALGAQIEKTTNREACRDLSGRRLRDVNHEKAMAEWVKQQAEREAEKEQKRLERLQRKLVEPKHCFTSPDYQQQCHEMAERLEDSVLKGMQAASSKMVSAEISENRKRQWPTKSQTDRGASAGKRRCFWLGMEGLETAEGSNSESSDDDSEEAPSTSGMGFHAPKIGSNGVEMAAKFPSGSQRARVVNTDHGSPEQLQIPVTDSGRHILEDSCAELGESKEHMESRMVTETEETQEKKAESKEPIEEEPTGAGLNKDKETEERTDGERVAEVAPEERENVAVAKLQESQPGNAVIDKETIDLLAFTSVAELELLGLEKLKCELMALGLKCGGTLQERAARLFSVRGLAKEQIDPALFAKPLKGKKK
# Experiment: fluorescence anisotropy
# Conditions: EMSA: 10 mM Tris-HCl pH 7.5, 50 mM NaCl, 0.5 mM DTT, 0.05 mM EDTA, 3% glycerol, 0.05 mg/ml BSA (or 50 mM Na/K PO4 pH 6.0, 50 mM NaCl, 5 mM DTT), on ice …
sequence,measurement,value
GACGCTGCCGAATTCTACCAGTGCCTTGCTAGGACATCTTTGCCCACCTGCAGGTTCACCC (double strand) [60-mer dsDNA (EMSA1/EMSA2)],Kd,24.2 µM
